Test results reported in publication PMC4117941 (Genes & Development, 2014).

Experiments:
[1] = target: Mcm3 (HA-Mcm3, subunit of the purified MCM2–7 hexamer) (S. cerevisiae, UniProt P24279 1-971); experiment: EM, three-dimensional reconstruction
[2] = target: T1, Mcm4 (subunit of the purified MCM2–7 hexamer) (S. cerevisiae, UniProt P30665 1-933); experiment: EM, three-dimensional reconstruction
T1 sequence: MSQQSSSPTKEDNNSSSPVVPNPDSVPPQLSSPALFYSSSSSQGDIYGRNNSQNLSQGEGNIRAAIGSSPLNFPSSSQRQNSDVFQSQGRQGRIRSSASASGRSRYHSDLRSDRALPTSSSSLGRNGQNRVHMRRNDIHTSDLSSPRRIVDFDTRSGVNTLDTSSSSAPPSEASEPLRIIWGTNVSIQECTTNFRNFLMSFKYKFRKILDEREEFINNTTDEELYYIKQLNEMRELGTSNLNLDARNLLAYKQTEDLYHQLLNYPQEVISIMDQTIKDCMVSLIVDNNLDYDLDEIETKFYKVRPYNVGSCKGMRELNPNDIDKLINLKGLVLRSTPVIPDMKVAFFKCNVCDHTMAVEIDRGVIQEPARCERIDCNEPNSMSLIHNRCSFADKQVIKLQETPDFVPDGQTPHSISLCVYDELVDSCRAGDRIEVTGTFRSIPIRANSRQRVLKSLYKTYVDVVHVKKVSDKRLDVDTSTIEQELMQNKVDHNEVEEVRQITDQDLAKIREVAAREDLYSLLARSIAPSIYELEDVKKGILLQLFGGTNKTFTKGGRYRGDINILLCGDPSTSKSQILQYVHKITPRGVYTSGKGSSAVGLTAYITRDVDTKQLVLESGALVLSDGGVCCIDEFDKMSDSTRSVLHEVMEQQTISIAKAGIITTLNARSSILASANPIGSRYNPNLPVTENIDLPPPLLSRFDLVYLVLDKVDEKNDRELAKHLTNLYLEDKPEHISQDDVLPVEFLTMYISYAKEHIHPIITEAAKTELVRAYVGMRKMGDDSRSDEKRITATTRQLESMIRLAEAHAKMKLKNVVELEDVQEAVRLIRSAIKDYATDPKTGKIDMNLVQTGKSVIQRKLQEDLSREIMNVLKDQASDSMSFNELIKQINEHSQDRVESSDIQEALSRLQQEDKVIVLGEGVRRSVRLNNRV

Chain of Mcm3 (HA-Mcm3, subunit of the purified MCM2–7 hexamer) (P24279 whole entry): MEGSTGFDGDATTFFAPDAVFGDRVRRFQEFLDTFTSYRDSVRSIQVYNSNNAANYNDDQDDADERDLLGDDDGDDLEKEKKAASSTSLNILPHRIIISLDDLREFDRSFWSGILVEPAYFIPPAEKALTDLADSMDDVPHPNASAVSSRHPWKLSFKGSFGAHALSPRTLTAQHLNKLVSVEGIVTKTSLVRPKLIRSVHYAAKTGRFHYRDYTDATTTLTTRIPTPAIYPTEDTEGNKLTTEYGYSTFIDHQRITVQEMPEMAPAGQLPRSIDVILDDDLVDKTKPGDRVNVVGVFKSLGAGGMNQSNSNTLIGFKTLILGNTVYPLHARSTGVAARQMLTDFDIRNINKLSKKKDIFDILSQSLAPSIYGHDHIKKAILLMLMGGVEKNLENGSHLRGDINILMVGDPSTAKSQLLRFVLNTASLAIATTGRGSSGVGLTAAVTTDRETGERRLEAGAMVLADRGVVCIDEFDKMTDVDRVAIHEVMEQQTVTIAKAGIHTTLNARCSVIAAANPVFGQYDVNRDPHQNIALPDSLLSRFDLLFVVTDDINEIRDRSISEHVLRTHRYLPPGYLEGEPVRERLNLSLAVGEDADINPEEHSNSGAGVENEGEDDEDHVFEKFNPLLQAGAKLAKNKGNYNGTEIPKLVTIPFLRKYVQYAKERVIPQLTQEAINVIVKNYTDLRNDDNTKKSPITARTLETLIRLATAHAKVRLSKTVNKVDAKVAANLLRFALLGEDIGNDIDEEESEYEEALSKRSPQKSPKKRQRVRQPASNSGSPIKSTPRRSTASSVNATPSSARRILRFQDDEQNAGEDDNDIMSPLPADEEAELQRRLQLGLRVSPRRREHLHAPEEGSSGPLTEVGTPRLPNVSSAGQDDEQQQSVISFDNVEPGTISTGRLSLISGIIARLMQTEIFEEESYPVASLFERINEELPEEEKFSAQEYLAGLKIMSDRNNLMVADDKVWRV

- binding result [1]: binds
- binding result [2]: binds
B1: Mcm7 (subunit of the purified MCM2–7 hexamer) (natural protein)
chain: MSAALPSIQLPVDYNNLFNEITDFLVTFKQDTLSSDATRNENEDENLDAENIEQHLLEKGPKYMAMLQKVANRELNSVIIDLDDILQYQNEKFLQGTQADDLVSAIQQNANHFTELFCRAIDNNMPLPTKEIDYKDDVLDVILNQRRLRNERMLSDRTNEIRSENLMDTTMDPPSSMNDALREVVEDETELFPPNLTRRYFLYFKPLSQNCARRYRKKAISSKPLSVRQIKGDFLGQLITVRGIITRVSDVKPAVEVIAYTCDQCGYEVFQEVNSRTFTPLSECTSEECSQNQTKGQLFMSTRASKFSAFQECKIQELSQQVPVGHIPRSLNIHVNGTLVRSLSPGDIVDVTGIFLPAPYTGFKALKAGLLTETYLEAQFVRQHKKKFASFSLTSDVEERVMELITSGDVYNRLAKSIAPEIYGNLDVKKALLLLLVGGVDKRVGDGMKIRGDINVCLMGDPGVAKSQLLKAICKISPRGVYTTGKGSSGVGLTAAVMKDPVTDEMILEGGALVLADNGICCIDEFDKMDESDRTAIHEVMEQQTISISKAGINTTLNARTSILAAANPLYGRYNPRLSPLDNINLPAALLSRFDILFLMLDIPSRDDDEKLAEHVTYVHMHNKQPDLDFTPVEPSKMREYIAYAKTKRPVMSEAVNDYVVQAYIRLRQDSKREMDSKFSFGQATPRTLLGIIRLSQALAKLRLADMVDIDDVEEALRLVRVSKESLYQETNKSKEDESPTTKIFTIIKKMLQETGKNTLSYENIVKTVRLRGFTMLQLSNCIQEYSYLNVWHLINEGNTLKFVDDGTMDTDQEDSLVSTPKLAPQTTASANVSAQDSDIDLQDA
